The values that follow come from publication PMC9140564 (International Journal of Molecular Sciences, 2022).

Assay [1] deals with T1, recombinant pre-S region protein of the HBV large surface protein (LHBS) (Hepatitis B virus, strain ; …, UniProt P03141).
T1 construct: also called pre-S region E. coli recombinant protein; source: E. coli BL21 (pET21b, IPTG 0.2 mM), purified
The experiment in a line: ELISA; antigen protein or peptide coated on the plate (0.1 ng/uL, or 10-fold serial dilutions), 4 °C overnight; purified monoclonal antibody added (serial dilutions or 1:2000 in PBST); PBST pH 7.4 washes; anti-mouse IgG-HRP, chemiluminescence read-out. As to conditions: both partners purified. For orientation: ELISA stands for enzyme-linked immunosorbent assay.

Assay [2] deals with T2, large HBV surface protein (LHBS), full-length, expressed in 293T cells (Hepatitis B virus, strain ; …, UniProt P03141).
T2 construct: hepatitis B virus large surface protein: pre-S1 (119 a.a.), pre-S2 (55 a.a.) and S (227 a.a.) regions as printed; also called the full-length; source: 293T cells, transfected, in lysate
The experiment in a line: ELISA; lysates of 293T cells transfected with LHBS genes with partial deletions, tested for recognition by the monoclonal antibody. As to conditions: one partner purified.

In assay [3] the target is T3, pre-S1 oligopeptide of amino acids 25-38 (Hepatitis B virus, strain  …).
T3 construct: pre-S1 region of the hepatitis B virus large surface protein, amino acids 25-38; One of several oligopeptides spanning pre-S1 21-47; also called peptide containing amino acids 25–38; source: synthetic peptide
T3 chain: FPDHQLDPAFGANS
The assay can be described thus: ELISA; antigen protein or peptide coated on the plate (0.1 ng/uL, or 10-fold serial dilutions), 4 °C overnight; purified monoclonal antibody added (serial dilutions or 1:2000 in PBST); PBST pH 7.4 washes; anti-mouse IgG-HRP, chemiluminescence read-out. As to conditions: both partners purified.

T1 sequence (P03141 whole entry, looked up): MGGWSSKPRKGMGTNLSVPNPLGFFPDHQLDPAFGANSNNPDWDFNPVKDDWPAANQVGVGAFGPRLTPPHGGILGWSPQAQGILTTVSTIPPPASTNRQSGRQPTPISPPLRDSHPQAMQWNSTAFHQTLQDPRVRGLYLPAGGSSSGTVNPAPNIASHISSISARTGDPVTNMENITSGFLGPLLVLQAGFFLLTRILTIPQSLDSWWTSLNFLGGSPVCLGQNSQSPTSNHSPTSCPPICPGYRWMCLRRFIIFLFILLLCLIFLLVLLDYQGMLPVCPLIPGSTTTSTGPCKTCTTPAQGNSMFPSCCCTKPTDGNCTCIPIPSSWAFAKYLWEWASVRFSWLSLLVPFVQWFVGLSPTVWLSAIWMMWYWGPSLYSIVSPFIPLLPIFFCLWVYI
T2 sequence (P03141 whole entry): as the sequence (P03141 whole entry, looked up) above

B1: anti-pre-S2 mouse monoclonal antibody (antibody, V domains shown)
VH: QVQLQQPGTELVKPGTSVKLSCKASGYTFTSYWMHWVKLRPGQGFEWIGEINPSNGITNYNEKFKRKATLTVDKSSTTAYMQLSSLTFEDSAVYYCTIGYDYGSNYEAMDFWGQGTSVTVSS
VL: DIVMTQAAFSNPVTLGTSASMSCRSSKSLLHSNGITYLYWYLQKPGQSPQLLIYQMSNLASGVPDRFSSGGSGTDFTLRISRVEAEDVGVYYCAQNLELPWTFGGGTKLEIK
notes: heavy chain CDR1; heavy chain CDR2; heavy chain CDR3; kappa light chain CDR1; kappa light chain CDR2; kappa light chain CDR3; Only the six CDRs are printed; Aliquots were conjugated with biotin for use as detection antibody in the sandwich ELISA; also called pre-S2 antibody; anti-pre-S2 region antibody; source: mouse hybridoma, ascites fluid, purified using IgG beads
Regarding B1, the binding result in assay [1] and in assay [2] was “binds” each time.

B2: anti-pre-S1 mouse monoclonal antibody (clone N-term-7-21-5) (antibody, V domains shown)
VH: DVQLQESGPGLVKPSQSLSLTCTVTGYSITSDYAWNWIRQFPGNKLEWMGYIRYSGTTNYNPSLKSRISITRDTSKNQFFLQLNSVTTEDTATYYCARGGTGLTYWGQGTLVTVSA
VL: NIVMTQSPKSMSMSLGERVTLTCKASENVGTYVSWYQQKPEQSPKLLIYGASNRNTGVPDRFTGSGPATDFTLTISSVQAEDLADYLCGQTYNYPFTFGAGTKLELK
notes: heavy chain CDR1; heavy chain CDR2; heavy chain CDR3; kappa light chain CDR1; kappa light chain CDR2; kappa light chain CDR3; Only the six CDRs are printed; Coating antibody of the sandwich ELISA; also called pre-S1 antibody; LHBS-specific antibody; source: mouse hybridoma, ascites fluid, purified using IgG beads
As for B2, the binding result in assay [3] and in assay [1] was “binds” each time.
